This is an account of results in paper PMC2096194 (Nature structural & molecular biology, 2007).

B1: BRC4 peptide (human BRCA2 residues 1,514-1,548), biotinylated (peptide)
peptide: EKIKEPTLLGFHTASGKKVKIAKESLDKVKNLFDE
modifications: biotin on the N-terminus
B2: Lys80 RAD51 (residues 80-339) (domain or fragment)
chain: KLVPMGFTTATEFHQRRSEIIQITTGSKELDKLLQGGIETGSITEMFGEFRTGKTQICHTLAVTCQLPIDRGGGEGKAMYIDTEGTFRPERLLAVAERYGLSGSDVLDNVAYARAFNTDHQTQLLYQASAMMVESRYALLIVDSATALYRTDYSGRGELSARQMHLARFLRMLLRLADEFGVAVVITNQVVAQVDGAAMFAADPKKPIGGNIIAHASTTRLYLRKGRGETRICKIYDSPCLPEAEAMFAINADGVGDAKD

For one series, the target named is T1, Full-length human RAD51 (human, UniProt Q06609 1-339).
T1 sequence: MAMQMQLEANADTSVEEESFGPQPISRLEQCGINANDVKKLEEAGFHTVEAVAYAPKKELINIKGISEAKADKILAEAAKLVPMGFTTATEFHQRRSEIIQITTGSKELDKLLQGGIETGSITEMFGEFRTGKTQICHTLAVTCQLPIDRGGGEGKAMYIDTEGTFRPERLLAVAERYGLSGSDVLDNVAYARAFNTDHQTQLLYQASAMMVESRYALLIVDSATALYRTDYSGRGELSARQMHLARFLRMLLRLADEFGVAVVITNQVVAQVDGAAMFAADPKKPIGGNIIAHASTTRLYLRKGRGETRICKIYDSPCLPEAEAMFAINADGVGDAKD
In words: cross-linking.

Series [1] addresses B2. In words: pull-down.
The series “SEC” concerns the molecule itself. In words: SEC.

With B1, the binding result (with Full-length human RAD51; in series [1]) was “binds” in each case.
As to B2, the binding result in the series “SEC” was “binds”.
